Test results reported in the supplement of paper PMC7877785.
± gives the uncertainty stated by the source.

Assay: self-splicing fitness, log relative to wild type (ln ratio); higher = more splicing; Tetrahymena group I intron in knt gene, E. coli kanamycin selection, DiMSum; sequences stand for … in CUCUCU…GGAGGGAAAAGUUAUCAGGCAUGCACCUGGUAGCUAGUCUUUAAACCAAUAGAUUGCAUCGGUUUAAAAGGCAAGACCGUCAAAUUGCGGGAAAGGGGUCAACAGCCGUUCAGUACCAAGUCUCAGGGGAAACUUUGAGAUGGCCUUGCAAAGGGUAUGGUAAUAAGCUGACGGACAUGGUCCUAACCACGCAGCCAAGUCCUAAGUCAACAGAUCUUCUGUUGAUAUGGAUGCAGUUCACAGACUAAAUGUCGGUCGGGGAAGAUGUAUUCUUCUCAUAAGAUAUAGUCGGACCUCUCCUUAAUGGGAGCUAGCGGAUGAAGUGAUGCAACACUGGAGCCGCUGGGAACUAAUUUGUAUGCGAAAGUAUAUUGAUUAGUUUUGGAGUACUCGUGGUCG
Outline: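 The eight P1ex-region nucleotides of an intron in the knt kanamycin-resistance gene on pET-22b(+) were all randomised and the library put into E. coli BL21(DE3). Six replicate transformations were grown overnight at 37°C or 30°C on LB agar with or without 25 μg/mL kanamycin, together with 100 μg/mL carbenicillin, 50 μM IPTG and 0.2% rhamnose. Colonies were pooled and amplicon-sequenced on an Illumina HiSeq 2500. Fitness from DiMSum is the error-weighted combination of wild-type-normalised replicate fold changes, kanamycin over none.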

Sequence	self-splicing fitness (ln) (30 °C)	self-splicing fitness (ln) (37 °C)
GUAUAGCAAUAUUACGCCUA	-1.64 ± 0.27	-0.116 ± 0.22
GGUAAGCAAUAUUACGAUUU	-0.236 ± 0.1	-0.0101 ± 0.14
UUGUAGCAAUAUUACGCGUA	-1.31 ± 0.18	-0.742 ± 0.22
UGCCAGCAAUAUUACGGAAU	-2.74 ± 0.15	-1.95 ± 0.11
CUCAAGCAAUAUUACGUGAA	-0.683 ± 0.077	-0.629 ± 0.12
CUUUAGCAAUAUUACGGGUA	-3.97 ± 0.47	-2.56 ± 0.21
GAUGAGCAAUAUUACGAAUC	-3.19 ± 0.41	-1.89 ± 0.29
AUCUAGCAAUAUUACGGGAG	-0.833 ± 0.076	-0.293 ± 0.092
GUAUAGCAAUAUUACGUACU	-3.8 ± 0.39	-2.05 ± 0.2
ACUUAGCAAUAUUACGGAAG	-2.44 ± 0.13	-1.25 ± 0.14
UUACAGCAAUAUUACGUGAG	-0.626 ± 0.055	0.12 ± 0.092
UUUAAGCAAUAUUACGCUCG	-0.577 ± 0.095	0.0454 ± 0.11
GGAAAGCAAUAUUACGCACU	-1.35 ± 0.22	-1.57 ± 0.3
UACAAGCAAUAUUACGUGCG	-1.05 ± 0.054	-0.158 ± 0.075
UUGGAGCAAUAUUACGGACC		-2.55 ± 0.33
CCAAAGCAAUAUUACGAUUU	-3.85 ± 0.2	-1.98 ± 0.19
CUAGAGCAAUAUUACGUCUU	-3.52 ± 0.18	-2.27 ± 0.22
CUGAAGCAAUAUUACGGGCC	-3.65 ± 0.32	
AGAUAGCAAUAUUACGGAUA	-4.2 ± 0.42	-1.23 ± 0.23

Sequence	self-splicing fitness (ln) (30 °C)	self-splicing fitness (ln) (37 °C)
CGUGAGCAAUAUUACGGCGC	-3.69 ± 0.34	-2.43 ± 0.37
CGCAAGCAAUAUUACGGUCC	-1.07 ± 0.076	-0.628 ± 0.12
GUAAAGCAAUAUUACGGCCC	0.25 ± 0.16	0.443 ± 0.24
GAACAGCAAUAUUACGCCCC	-1.22 ± 0.25	-0.835 ± 0.47
CCACAGCAAUAUUACGCUCU	-4.07 ± 0.17	-2.1 ± 0.16
UAGGAGCAAUAUUACGUCCU	-1.63 ± 0.18	-2.25 ± 0.26
ACCGAGCAAUAUUACGGGAG	-3.54 ± 0.2	-2.69 ± 0.3
GUUGAGCAAUAUUACGCUGA	-3.9 ± 0.35	-2.61 ± 0.24
GCUUAGCAAUAUUACGAAUG	-1.79 ± 0.1	-1.33 ± 0.13
AAUCAGCAAUAUUACGGACG	-0.448 ± 0.068	0.478 ± 0.12
CGGUAGCAAUAUUACGGAGU	-3.33 ± 0.28	-3.27 ± 0.35
GAAAAGCAAUAUUACGGUUA	-0.324 ± 0.062	-0.0141 ± 0.067
CGCUAGCAAUAUUACGUCCG	-0.673 ± 0.092	-0.4 ± 0.11
CUCCAGCAAUAUUACGACAA	-2.27 ± 0.23	-2.29 ± 0.31
GGCGAGCAAUAUUACGGUCG	-1.13 ± 0.13	-0.98 ± 0.16
CCCUAGCAAUAUUACGGUCU	-3.61 ± 0.21	-1.72 ± 0.17
UCGGAGCAAUAUUACGCUUG	-3.64 ± 0.27	-2.83 ± 0.35
ACCUAGCAAUAUUACGCCCG	-1.73 ± 0.27	-1.13 ± 0.28
GCUCAGCAAUAUUACGCCUC	-1.49 ± 0.2	0.48 ± 0.22
